Entries after “also recorded” stand apart in the source; their conditions may differ. Where two headings read alike, the source gives them in different places.
Columns and labels:
[1] = test system: phosphatase for progranulin's phosphorylated Ser81 in LCLs; test: Phosphatase inhibitors added to cultured LCLs, progranulin isoforms read by IEF; assay type: cell-based, human
Source text: FIG. 14 a) to b): Identification of PP1 as the responsible phosphatase. a) Phosphatase inhibitors at specific concentrations or DMSO only as control were administrated for three days to cultured LCLs derived from a healthy donor and from a patient with hyperphosphorylated progranulin. Subsequently LCL lysates were subjected to IEF. Lanes (1) and (4) show the IEF of the LCL from a healthy control and a progranulin-antibody positive patient cultured without phosphatase inhibitors. […] The further lanes show the administration of following phosphatase inhibitors to LCL-lysates from healthy controls (top) and from progranulin-antibody positive patients (bottom): 1) DMSO, 2) of serine/threonine inhibitor cocktail 1, 3) of NIPP1 at 10 pM, 4) of okadaic acid at 10 nM, 5) of okadaic acid at 0.1 nM and of okadaic acid at 500 nM.
Isoelectric focusing was performed as described before. In short, whole blood cell extracts or extracts of LCLs were washed and treated with lysis buffer (8 M urea, 0.1 M NaH2PO4, 0.01 M Tris HCl, 0.1% NP40). Following to this, isoelectric focusing was performed (pH 3-10, Invitrogen) according to the manufacturer's protocol (1 hour 100 V, 1 hour 200 V, and 30 minutes 500 V). After semi-dry blotting on PVDF membranes (450 mA, 24V, 1 hour), patient's plasma was used for immunodetection of progranulin from whole blood cell lysates and murine anti-FLAG antibody (Sigma) was used at a dilution of 1:2,000 for immunodetection of progranulin from LCL lysates. These LCLs had been previously transfected with FLAG-tagged progranulin in pRTS. The membrane was blocked in TST/milk buffer (10% milk in 10 mM Tris/HCl, pH 7.5, 150 mM NaCl, 0.1% [v/v] Tween 20) overnight, washed, and incubated for 1 hour with plasma in TST or murine anti-FLAG-antibody. After 3 washings in TST, the membranes were incubated for 1 hour at room temperature with PDX-labeled goat anti-human IgG Ab (Dianova) diluted 1:5,000 or PDX-labeled anti-mouse IgG Ab (Biorad) in TST, subsequently washed in TST followed by ECL development. To perform IEF on different cell fractions, PBMCs and granulocytes were isolated by density double gradient centrifugation (Histopaque-1077 and -1119, Sigma). Monocytes, B-cells and T-cells were sorted with CD14, CD19 and CD3. Mucosa cells were obtained by swab from the oral cavities of patients and controls.
To identify the responsible phosphatase for progranulin's phosphorylated Ser81 a panel of different phosphatase inhibitors was administered at specific concentrations to the cultured LCLs, which had been obtained from progranulin-antibody positive patients and from healthy controls with the aim to inhibit particular groups of phosphatases. This panel consisted of serine/threonine phosphatase inhibitor cocktail, tyrosine phosphatase inhibitor, okadaic acid at 500 nM, 10 nM, 0.1 nM and NIPP1 at 10 pM. Following to this, IEFs of the lysates of these LCLs were performed to check for possible differences in the phosphorylation state.

[2] = cited from earlier work
[3] = test system: hyperphosphorylated progranulin isoform; test: Treatment of sera / cell lysates with alkaline phosphatase before IEF; assay type: biochemical, human; settings: samples of progranulin-antibody positive patients
Method: Treatment of whole blood cell lysates or LCL lysates with alkaline phosphatase was conducted in principal as previously described. FastAP thermo sensitive alkaline phosphatase (Fermentas) was used. In short LCLs were washed 3 times with PBS. The lysis was performed in a buffer of 10 mM Tris HCl pH 8 for 1 h at 4° C. Following to this the supplied FastAP-Buffer (10×Fast AP-Buffer: 100 mM Tris-HCl, pH 8.0, 50 mM MgCl2, 1 M KCl, 0.2% Triton X-100 and 1 mg/ml BSA) was added to the cell lysate. For 0.1 mg/ml lysed protein extract, 10 units of FastAP were utilized. After 1 h at 37° C., the alkaline phosphatase reaction was stopped by the addition of 50 mM EDTA. Equal volumes of sample and loading buffer were mixed, followed by IEF and immuno-detection.

TNF-α-receptors 1 and 2 = settings: mouse models, versus Etanercept; cited from earlier work
[4] = test system: cytotoxic effects of TNF-α; settings: in vitro; cited from earlier work
TNF-Tg/GRN−/− mice = settings: cited from earlier work

Molecule: C=C1[C@@H](O)[C@@H]2O[C@]3(CC[C@H](/C=C/[C@@H](C)[C@@H]4CC(C)=C[C@@]5(O[C@H](C[C@@](C)(O)C(=O)O)CC[C@H]5O)O4)O3)CC[C@H]2O[C@@H]1[C@@H](O)C[C@H](C)[C@H]1O[C@@]2(CCCCO2)CC[C@H]1C [okadaic acid]
- normal and hyperphosphorylated progranulin isoforms in IEF ([1]; 0.1 nM (specific for PP2A), listed as ocadaic acid): didn't change the phosphorylation state
- normal and hyperphosphorylated progranulin isoforms in IEF ([1]; 10 nM (specific for PP1)): led to the appearance of the hyperphosphorylated progranulin isoform and the disappearance of the normal progranulin isoform
- normal and hyperphosphorylated progranulin isoforms in IEF ([1]; 10 nM (specific for PP1), listed as Ocadaic acid): led to the appearance of the hyperphosphorylated progranulin isoform
- normal and hyperphosphorylated progranulin isoforms in IEF ([1]; 500 nM (0.5 μM)): led to the appearance of the hyperphosphorylated progranulin isoform and the disappearance of the normal progranulin isoform
- normal and hyperphosphorylated progranulin isoforms in IEF ([1]; 500 nM (0.5 μM), listed as Ocadaic acid): led to the appearance of the hyperphosphorylated progranulin isoform

Molecule: TNF-α
- half-life ([2]; in vivo): about 20 min

Molecule: alkaline phosphatase
- additional (aberrantly charged) progranulin isoform in IEF after pretreatment [3]: disappearance of the additional progranulin isoform; also recorded: had lost the aberrantly charged progranulin isoform

B1: NIPP1: phosphatase inhibitor, at 10 pM specific for PP1 (protein, UniProt Q12972 1-351, looked up)
Nuclear inhibitor of protein …: MAAAANSGSSLPLFDCPTWAGKPPPGLHLDVVKGDKLIEKLIIDEKKYYLFGRNPDLCDFTIDHQSCSRVHAALVYHKHLKRVFLIDLNSTHGTFLGHIRLEPHKPQQIPIDSTVSFGASTRAYTLREKPQTLPSAVKGDEKMGGEDDELKGLLGLPEEETELDNLTEFNTAHNKRISTLTIEEGNLDIQRPKRKRKNSRVTFSEDDEIINPEDVDPSVGRFRNMVQTAVVPVKKKRVEGPGSLGLEESGSRRMQNFAFSGGLYGGLPPTHSEAGSQPHGIHGTALIGGLPMPYPNLAPDVDLTPVVPSAVNMNPAPNPAVYNPEAVNEPKKKKYAKEAWPGKKPTPSLLI
- normal and hyperphosphorylated progranulin isoforms in IEF ([1]; 10 pM (specific for PP1)): led to the appearance of the hyperphosphorylated progranulin isoform and the disappearance of the normal progranulin isoform

B2: progranulin: secreted glycoprotein, precursor with N-terminal signal peptide and seven granulin motifs; SEQ ID NO: 1 (protein, listed as Homo sapiens)
chain: MWTLVSWVALTAGLVAGTRCPDGQFCPVACCLDPGGASYSCCRPLLDKWPTTLSRHLGGPCQVDAHCSAGHSCIFTVSGTSSCCPFPEAVACGDGHHCCPRGFHCSADGRSCFQRSGNNSVGAIQCPDSQFECPDFSTCCVMVDGSWGCCPMPQASCCEDRVHCCPHGAFCDLVHTRCITPTGTHPLAKKLPAQRTNRAVALSSSVMCPDARSRCPDGSTCCELPSGKYGCCPMPNATCCSDHLHCCPQDTVCDLIQSKCLSKENATTDLLTKLPAHTVGDVKCDMEVSCPDGYTCCRLQSGAWGCCPFTQAVCCEDHIHCCPAGFTCDTQKGTCEQGPHQVPWMEKAPAHLSLPDPQALKRDVPCDNVSSCPSSDTCCQLTSGEWGCCPIPEAVCCSDHQHCCPQGYTCVAEGQCQRGSEIVAGLEKMPARRASLSHPRDIGCDQHTSCPVGQTCCPSLGGSWACCQLPHAVCCEDRQHCCPAGYTCNVKARSCEKEVVSAQPATFLARSPHVGVKDVECGEGHFCHDNQTCCRDNRQGWACCPYRQGVCCADRRHCCPAGFRCAARGTKCLRREAPRWDAPLRDPALRQLL
modifications: misc (1)..(593) Progranulin
- strength of the anti-inflammatory effect (TNF-α-receptors 1 and 2): comparable to the effect of the synthetic TNF-blocker “Etanercept”
- protection of cells from cytotoxic effects of TNF-α [4]: protected cells in vitro from cytotoxic effects of TNF-α
- half-life ([2]; progranulin, reference [1]): about 40 h
- clinical response of spontaneous arthritis (TNF-Tg/GRN−/− mice): rapid clinical recovery
- plasma levels of cartilage oligomeric matrix protein (COMP) (TNF-Tg/GRN−/− mice): decreased
